# Like-named read-outs stand apart in the source and are kept apart here.
# T1: WT rat sGC heme free (tween treated) (rat, UniProt P19686 1-690; P20595 1-619)
# T1 construct: alpha1-StrepII/beta1 heterodimer made in Sf9 cells and purified; The heme was removed with 0.5% Tween20 for 20 min at 37 C; It has the same polypeptides as the heme-loaded form and differs only in lacking the heme; also called heme free sGC (as obtained by tween treatment); heme free version of wt rat sGC; not shown: C-terminal strep-tag (StrepII)
# T1 sequence (looked up) 1: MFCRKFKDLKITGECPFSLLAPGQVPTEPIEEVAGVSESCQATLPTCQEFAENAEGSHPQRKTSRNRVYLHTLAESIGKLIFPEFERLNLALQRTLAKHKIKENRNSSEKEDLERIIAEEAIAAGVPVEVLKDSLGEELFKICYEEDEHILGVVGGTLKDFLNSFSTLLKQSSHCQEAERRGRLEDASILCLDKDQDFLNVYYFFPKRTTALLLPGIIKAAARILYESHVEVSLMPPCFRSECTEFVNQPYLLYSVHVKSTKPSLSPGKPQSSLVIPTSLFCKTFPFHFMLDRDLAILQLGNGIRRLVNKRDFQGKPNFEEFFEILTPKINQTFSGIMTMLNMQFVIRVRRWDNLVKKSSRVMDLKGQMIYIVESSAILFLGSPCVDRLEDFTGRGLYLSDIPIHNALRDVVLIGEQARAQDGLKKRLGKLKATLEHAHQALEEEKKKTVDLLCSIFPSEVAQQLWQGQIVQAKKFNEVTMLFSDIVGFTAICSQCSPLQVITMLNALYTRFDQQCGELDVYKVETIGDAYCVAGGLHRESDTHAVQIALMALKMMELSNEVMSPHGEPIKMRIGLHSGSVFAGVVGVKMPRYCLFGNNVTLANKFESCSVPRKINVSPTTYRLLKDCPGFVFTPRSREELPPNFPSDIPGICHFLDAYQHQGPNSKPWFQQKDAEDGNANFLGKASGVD
# T1 sequence (looked up) 2: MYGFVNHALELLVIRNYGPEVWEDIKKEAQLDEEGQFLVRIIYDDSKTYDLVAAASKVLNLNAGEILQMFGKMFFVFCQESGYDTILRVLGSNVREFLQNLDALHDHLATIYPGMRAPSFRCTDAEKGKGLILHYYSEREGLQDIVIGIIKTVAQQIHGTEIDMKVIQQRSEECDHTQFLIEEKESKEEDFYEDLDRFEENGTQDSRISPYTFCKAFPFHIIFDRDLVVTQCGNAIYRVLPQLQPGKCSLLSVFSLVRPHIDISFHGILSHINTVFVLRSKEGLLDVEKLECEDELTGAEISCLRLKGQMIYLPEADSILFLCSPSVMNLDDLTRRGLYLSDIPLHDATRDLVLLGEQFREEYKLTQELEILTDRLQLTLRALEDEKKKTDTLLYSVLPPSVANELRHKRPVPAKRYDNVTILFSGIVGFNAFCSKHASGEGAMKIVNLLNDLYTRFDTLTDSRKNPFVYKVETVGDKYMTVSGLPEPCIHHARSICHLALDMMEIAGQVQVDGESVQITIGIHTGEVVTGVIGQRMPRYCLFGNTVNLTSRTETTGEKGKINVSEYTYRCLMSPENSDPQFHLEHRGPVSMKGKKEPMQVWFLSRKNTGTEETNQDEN
# B1: TPP16284 (antibody, human IgG1, lambda, V domains shown)
# VH: EVQLLESGGGLVQPGGSLRLSCAASGFTFSSYAMSWVRQAPGKGLEWVSGVSWNGSRTHYADSVKGRFTISRDNSKNTLYLQMNSLRAEDTAVYYCARERLGKWYFDLWGRGTLVTVSS
# VL: QSVLTQPPSASGTPGQRVTISCSGSSSNIGNNAVNWYQQLPGTAPKLLIYGNSNRPSGVPDRFSGSKSGTSASLAISGLRSEDEADYYCQSYDSSLSGVFGGGTKLTVLG
# B2: TPP15715 (antibody, human IgG1, lambda, V domains shown)
# VH: EVQLLESGGGLVQPGGSLRLSCAASGFTFSNYAMSWVRQAPGKGLEWVSAISGSGGSTFYADSVKGRFTISRDNSKNTLYLQMNSLRAEDTAVYYCATDGTDAFDIWGQGTLVTVSS
# VL: QSVLTQPPSASGTPGQRVTISCTGSSSNIGAGYDVHWYQQLPGTAPKLLIYENDRRPSGVPDRFSGSKSGTSASLAISGLRSEDEADYYCAAWDDSLNGPLFGGGTKLTVLG
# notes: also called 5H10; TPP15715_5H10
# Assays:
# [1] = molecular target: Human apo-sGC (H105F) (human) (UniProt Q02108); assay: SPR
# Chain of Human apo-sGC (H105F) (human) (Q02108 whole entry, stated change not applied): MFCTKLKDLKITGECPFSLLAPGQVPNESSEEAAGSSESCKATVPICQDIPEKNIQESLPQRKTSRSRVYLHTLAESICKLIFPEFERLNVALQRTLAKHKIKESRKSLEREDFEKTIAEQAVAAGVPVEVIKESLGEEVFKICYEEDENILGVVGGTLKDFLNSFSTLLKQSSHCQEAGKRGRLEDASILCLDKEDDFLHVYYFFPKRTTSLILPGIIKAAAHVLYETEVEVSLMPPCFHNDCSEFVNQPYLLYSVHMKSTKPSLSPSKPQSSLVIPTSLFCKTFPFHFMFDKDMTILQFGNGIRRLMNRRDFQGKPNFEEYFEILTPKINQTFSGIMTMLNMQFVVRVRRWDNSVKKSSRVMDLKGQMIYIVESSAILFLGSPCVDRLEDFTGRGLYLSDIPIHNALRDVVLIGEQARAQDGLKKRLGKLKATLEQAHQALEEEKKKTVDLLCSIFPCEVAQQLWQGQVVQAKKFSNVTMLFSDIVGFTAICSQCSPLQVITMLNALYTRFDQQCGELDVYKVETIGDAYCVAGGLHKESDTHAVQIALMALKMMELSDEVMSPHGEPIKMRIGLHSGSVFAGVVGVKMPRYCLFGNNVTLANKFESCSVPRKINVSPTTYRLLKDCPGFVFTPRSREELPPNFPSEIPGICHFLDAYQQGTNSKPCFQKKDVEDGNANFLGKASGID
# [2] = molecular target: rat apo-sGC (H105F) (rat) (UniProt P19686); assay: SPR
# [3] = molecular target: rat apo-sGC (H105F) (rat) (UniProt P19686); assay: capture ELISA: IgG coated at 5 ug/mL, rat apo-sGC (H105F) titrated, streptavidin-HRP, OD 450 nm; the axis gives the sGC concentration
# [4] = molecular target: T1, WT rat sGC heme free (tween treated); assay: SPR
# [5] = molecular target: T1, WT rat sGC heme free (tween treated); assay: capture ELISA: IgG coated at 5 ug/mL, tween-treated (heme-free) WT rat sGC titrated, streptavidin-HRP, OD 450 nm; the axis gives the sGC concentration
# Experimental: (§1) To determine by ELISA the capacity of individual IgGs to discriminate the apo (heme free) version of wt rat sGC from the heme-loaded version, 5 μg/mL of each individual IgG were coated in Nunc® maxisorp 96-well plates overnight at 4° C. After a minimum 16 hours adsorption period, coated maxisorp plates were blocked with PBS-3% skimmed milk (v/v) prior to the addition of purified rat wt sGC proteins previously treated with 0.5% (v/v) tween to remove the heme group, or not-treated thus preserving heme group. Successful entrapment of heme free or heme-loaded wt rat sGC molecules by reformatted IgG molecules was detected with streptavidin-HRP.
# [6] = molecular target: T1, WT rat sGC heme free (tween treated); assay: as above; remark: listed apart in the source
# Experimental: as §1
Binder,Kd [1] [nM],Kd [2] [nM],EC50 (read off the curve) [3] [nM],Kd [4] [nM],EC50 (read off the curve) [5] [nM],EC50 (read off the curve) [6] [nM]
B1,146,67,70,,,
B2,,,,50,~50,~20

# From patent US20220128561A1 (Bayer, published 2022)
